Results taken from patent US20240285749A1 (published 2024).

Target: HA ectodomain trimer (UniProt Q289M7 18-528)
Experiment: Octet

B1: CR9114 (Fab, V domains shown)
VH: QVQLVQSGAEVKKPGSSVKVSCKSSGGTSNNYAISWVRQAPGQGLDWMGGISPIFGSTAYAQKFQGRVTISADIFSNTAYMELNSLTSEDTAVYFCARHGNYYYYSGMDVWGQGTTVTVSS
VL: SYVLTQPPAVSGTPGQRVTISCSGSDSNIGRRSVNWYQQFPGTAPKLLIYSNDQRPSVVPDRFSGSKSGTSASLAISGLQSEDEAEYYCAAWDDSLKGAVFGGGTQLTVL
With B1 the Kd was less than 1 pM.
